Data published in PMC3430658, “Investigation of Real-Time Photorepair Activity on DNA via Surface Plasmon Resonance”.

Tests used:
[1] = target: T1, VcPHR (CPD photolyase, MBP fusion) (Vibrio cholerae, UniProt Q9KNA8 1-469); assay: SPR; photoactivated, DTT; repair during injection; SPR (SensiQ Discovery, neutravidin BioCap chip), 1X PBS (10 mM phosphate, 2.7 mM KCl, 137 mM NaCl) pH 7.4, 0.005% Tween 20, 25 C, 50 uL/min; protein in PBS with 1 mM DTT; conditions: protein: recombinant, tags: MBP (pMal-c2x, pUNC2001)
T1 sequence: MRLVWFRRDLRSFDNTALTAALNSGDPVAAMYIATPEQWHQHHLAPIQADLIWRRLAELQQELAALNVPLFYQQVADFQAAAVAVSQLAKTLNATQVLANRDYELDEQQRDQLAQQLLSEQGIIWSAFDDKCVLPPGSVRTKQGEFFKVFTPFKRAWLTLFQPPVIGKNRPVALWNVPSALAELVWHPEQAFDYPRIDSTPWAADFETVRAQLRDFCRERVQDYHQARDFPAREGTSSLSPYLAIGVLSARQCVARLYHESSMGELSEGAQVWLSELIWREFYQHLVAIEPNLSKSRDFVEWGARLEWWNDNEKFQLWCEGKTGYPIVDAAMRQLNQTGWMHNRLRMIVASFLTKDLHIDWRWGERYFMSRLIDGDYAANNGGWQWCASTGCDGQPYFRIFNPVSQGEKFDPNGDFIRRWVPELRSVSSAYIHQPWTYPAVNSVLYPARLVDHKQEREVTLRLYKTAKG

[2] = target: T2, CRY-DASH (VcCry1, MBP fusion) (Vibrio cholerae, UniProt Q9KR33 1-461); assay: as above; conditions: protein: recombinant; tags: MBP (pMal-c2x, pUNC2002); label: 5'-biotin
T2 sequence: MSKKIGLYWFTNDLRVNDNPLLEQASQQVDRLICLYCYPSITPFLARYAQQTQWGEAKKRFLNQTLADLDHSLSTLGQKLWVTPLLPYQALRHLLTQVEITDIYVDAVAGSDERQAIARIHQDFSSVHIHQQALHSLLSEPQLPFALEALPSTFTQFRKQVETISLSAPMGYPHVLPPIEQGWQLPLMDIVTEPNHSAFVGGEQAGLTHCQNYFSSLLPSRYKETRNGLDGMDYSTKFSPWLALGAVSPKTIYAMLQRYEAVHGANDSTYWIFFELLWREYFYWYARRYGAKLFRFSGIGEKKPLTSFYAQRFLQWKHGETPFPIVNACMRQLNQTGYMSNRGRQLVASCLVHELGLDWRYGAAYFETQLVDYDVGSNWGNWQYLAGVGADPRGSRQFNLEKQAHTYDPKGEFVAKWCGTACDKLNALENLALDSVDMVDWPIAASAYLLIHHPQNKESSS

[3] = target: T1, VcPHR (CPD photolyase, MBP fusion); assay: SPR; photoactivated, DTT; described as nonspecific; SPR (SensiQ Discovery, neutravidin BioCap chip), 1X PBS (10 mM phosphate, 2.7 mM KCl, 137 mM NaCl) pH 7.4, 0.005% Tween 20, 25 C, 50 uL/min; protein in PBS with 1 mM DTT; conditions: protein: recombinant, tags: MBP (pMal-c2x, pUNC2001)
[4] = target: T2, CRY-DASH (VcCry1, MBP fusion); assay: SPR; photoactivated, DTT; nonspecific, similar to BSA; SPR (SensiQ Discovery, neutravidin BioCap chip), 1X PBS (10 mM phosphate, 2.7 mM KCl, 137 mM NaCl) pH 7.4, 0.005% Tween 20, 25 C, 50 uL/min; protein in PBS with 1 mM DTT; conditions: protein: recombinant; tags: MBP (pMal-c2x, pUNC2002); label: 5'-biotin
[5] = target: T2, CRY-DASH (VcCry1, MBP fusion); assay: SPR; photoactivated, DTT; described as nonspecific; SPR (SensiQ Discovery, neutravidin BioCap chip), 1X PBS (10 mM phosphate, 2.7 mM KCl, 137 mM NaCl) pH 7.4, 0.005% Tween 20, 25 C, 50 uL/min; protein in PBS with 1 mM DTT; conditions: protein: recombinant; tags: MBP (pMal-c2x, pUNC2002); label: 5'-biotin on strand 1; blunt
[6] = target: T2, CRY-DASH (VcCry1, MBP fusion); assay: SPR; photoactivated, DTT; no significant binding, similar to BSA; SPR (SensiQ Discovery, neutravidin BioCap chip), 1X PBS (10 mM phosphate, 2.7 mM KCl, 137 mM NaCl) pH 7.4, 0.005% Tween 20, 25 C, 50 uL/min; protein in PBS with 1 mM DTT; conditions: protein: recombinant; tags: MBP (pMal-c2x, pUNC2002); label: 5'-biotin on strand 1; blunt
[7] = label: 5'-biotin on strand 1, blunt

In the case of GACGCAGATCTACGAATTCGCTTAATTCGCTGCACCGGATCCCGCTAG (ssDNA, UV 254 nm irradiated, mostly CPD (mixed lesions, positions not defined)) [UV-damaged ssDNA 48-mer], the Kd ([1]; label: 5'-biotin) is reported as 0.0012 µM and the Kd [2] is reported as 0.0637 µM.

GACGCAGATCTACGAATTCGCTTAATTCGCTGCACCGGATCCCGCTAG (ssDNA) [undamaged ssDNA 48-mer] gave a Kd ([3]; label: 5'-biotin) of 14 µM and a Kd [4] of 117 µM.

B1: undamaged dsDNA 48-mer (dsDNA)
DNA 1: GACGCAGATCTACGAATTCGCTTAATTCGCTGCACCGGATCCCGCTAG
DNA 2: CTAGCGGGATCCGGTGCAGCGAATTAAGCGAATTCGTAGATCTGCGTC
With B1 the Kd [3, 7] was 18.7 µM and the Kd [5] was 52.1 µM.

B2: UV-damaged dsDNA 48-mer (dsDNA)
DNA 1: B1 DNA 1
DNA 2: B1 DNA 2
modifications: strand 1 UV 254 nm irradiated, mostly CPD (mixed lesions, positions not defined); complement undamaged
B2 gave a Kd [1, 7] of 0.022 µM and a Kd [6] of 17.8 µM.
